The target of data set [1] is GST-Cdc25[254-316]-WT (62-amino acid region of Xenopus Cdc25 fused to glutathione S-transferase).

Changes are numbered by the printed parent chain. Names and notes keep the numbering of the source. Values joined by “and” are separate entries in the source; they are usually repeats but may differ in a detail not shown here. Equal values may be shown once.

B1: His6-Xcds1 (histidine-tagged Xcds1 purified from E. coli) (protein)
chain: MMSRDTKTESQQSQGTSSSSSSSAPQSYSQSSSSGTLSSLDTVPVQDLASIPEDPEIDEDIPQPWGRLWALGKGFLNHDCLHEEYVFGRDKKCDYTFDIPVLNQTDRYKTYSKRHFRIFQELGHGHSRVANIEDLSGNGTFVNKEIIGKGRTLPLTNNAEIALSLPTNKVFVFSDLSVDDQTIYPKDFIDKYIMSRPIGSGACGEVKLAFQKSVCKKVAVKIISKRKFKMNTSSNEHPISVDTEIEILKKLDHPCIIKIENFFDSEDFYYIVLELMEGGELFDRVVNSTRLREPIAKLYFYQMLLAVQYLHENGVIHRDLKPENVLLSSTSEECCIKITDFGQSKILGETSLMRTLCGTPTYLAPEVLNTAGTTGYSSAVDCWSLGVILFVCLCGYPPFSEQNSNIPLKNQIAEGKYTYIAAAWRNVSEQAFDLVKNLLVVDPEQRLTTKQALEHPWLQDDSMKHTVERLMYGVDHTMPPPIKKNIIRKRGHEWDQDASTSSCSEILPTSAEKRAKR
Take B1: the “phosphorylation in kinase assay with 32P-ATP (SDS-PAGE, PhosphorImager)” value in the data set with GST-Cdc25[254-316]-S287A is “a serine-to-alanine mutation at this position abolished the phosphorylation”; in data set [1], “His6-Xcds1, but not a catalytically inactive mutant (His6-Xcds1-N324A), phosphorylated a 62-amino acid region of Xenopus Cdc25 fused to glutathione S-transferase (GST-Cdc25[254-316]-WT)”.

B2: His6-Xcds1-N324A (catalytically inactive mutant) (protein)
chain: B1 chain with N324A
Take B2: in data set [1], the “phosphorylation in kinase assay with 32P-ATP (SDS-PAGE, PhosphorImager)” value is “but not a catalytically inactive mutant (His6-Xcds1-N324A)”.

B3: Hyperphosphorylated Xcds1 protein immunoprecipitated from egg extracts containing poly(dT)40 (protein)
chain: B1 chain
Consider B3, for which the kinase activity of the immunoprecipitate, increase over background in data set [1] was 5 fold and 6 fold.

B4: Xenopus laevis protein kinase Cds1 (Xcds1), endogenous protein in Xenopus egg extracts (protein)
chain: B1 chain
As for B4, the “kinase activity of the immunoprecipitate” value in data set [1] was “endogenous Xcds1 immunoprecipitated from egg extracts phosphorylated this substrate well”.

Source of the values: patent publication US20040018603.
